Assay results reported in paper PMC4475061 (2015).

Tests used:
[1] = biological target: IST1 MIMs peptide (residues 316–366), fluorescently labeled (human, Oregon Green 488 maleimide on the non-native N-terminal cysteine); experiment: FP
[2] = biological target: IST1 MIM2 peptide (residues 316–343); experiment: FP

Kd [1] [µM] | Kd [2] [µM] | Binder
0.32 |  | ULK3(MIT)2 V338D (domain or fragment) GPHMSGESLGRATALVVQAVKKDQEGDSAAALSLYCKALDFFVPALHYEVDAQRKEAIKAKVGQYDSRAEELKAIVSSSNQALLRQGTSARDLLREMARDKPRLLAALEVASAAMAKEEAAGGEQDALDLYQHSLGELLLLLAAEPPGRRRELLHTEVQNLMARAEYLKEQVKMRES
 | > 300 | ULK3(MIT)2 (residues 277–449) (domain or fragment) GPHMSGESLGRATALVVQAVKKDQEGDSAAALSLYCKALDFFVPALHYEVDAQRKEAIKAKVGQYVSRAEELKAIVSSSNQALLRQGTSARDLLREMARDKPRLLAALEVASAAMAKEEAAGGEQDALDLYQHSLGELLLLLAAEPPGRRRELLHTEVQNLMARAEYLKEQVKMRES
24.3 |  | ULK3(MIT)2 M434D (domain or fragment) GPHMSGESLGRATALVVQAVKKDQEGDSAAALSLYCKALDFFVPALHYEVDAQRKEAIKAKVGQYVSRAEELKAIVSSSNQALLRQGTSARDLLREMARDKPRLLAALEVASAAMAKEEAAGGEQDALDLYQHSLGELLLLLAAEPPGRRRELLHTEVQNLDARAEYLKEQVKMRES
